Assays:
dipeptidyl peptidase 4 = conditions: cited from earlier work
From the text: GLP-2R belongs to class B GPCR subfamily, which is mainly expressed in the gut, pancreas and brain.[1] […] GLP-2 is encoded by the proglucagon gene and becomes active after post-translational processing by prohormone convertases. As a gastrointestinal hormone, it mainly regulates intestinal epithelial cell growth and functions that are crucial for digestion and absorption of nutrients.[2]

GLP-2R K231^2.67A = target: T1, GLP-2R K231^2.67A (Homo sapiens, UniProt O95838, K231A); test: cAMP accumulation, K231^2.67A; assay type: cell-based; set-up: WT (1–553); expressed in transfected cells; HEK 293T (cAMP); conditions: Table S3, K231A; HEK 293T, 30 min, RT; mean ± SEM, n ≥ 3 in duplicate; read-out: cAMP Emax (% WT)
T1 sequence (O95838 1-553 K231A): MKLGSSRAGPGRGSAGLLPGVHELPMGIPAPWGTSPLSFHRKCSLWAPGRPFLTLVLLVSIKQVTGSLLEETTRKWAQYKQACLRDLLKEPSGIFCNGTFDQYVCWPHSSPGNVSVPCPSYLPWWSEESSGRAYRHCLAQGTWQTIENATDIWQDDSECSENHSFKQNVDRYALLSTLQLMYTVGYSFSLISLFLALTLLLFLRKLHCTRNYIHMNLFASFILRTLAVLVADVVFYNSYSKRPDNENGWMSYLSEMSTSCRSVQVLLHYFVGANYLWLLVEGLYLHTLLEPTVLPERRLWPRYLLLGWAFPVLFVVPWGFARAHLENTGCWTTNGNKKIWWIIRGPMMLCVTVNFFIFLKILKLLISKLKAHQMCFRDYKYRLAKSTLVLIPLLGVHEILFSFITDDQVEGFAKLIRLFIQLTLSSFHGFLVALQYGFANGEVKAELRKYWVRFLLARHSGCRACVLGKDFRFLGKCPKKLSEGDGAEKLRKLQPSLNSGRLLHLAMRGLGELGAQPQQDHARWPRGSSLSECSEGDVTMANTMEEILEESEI
Experimental: HEK 293T cells were cultured in Dulbecco’s Modified Eagle’s Medium (DMEM) (Gibco, Waltham, USA) supplemented with 10% (v/v) fetal bovine serum (FBS) (Gibco) and 1% (v/v) sodium pyruvate (Gibco) at 37 °C, 5% CO2 in a humidified incubator. They were seeded onto 6-well cell culture plates and transiently transfected with different GLP-2R constructs using Lipofectamine 2000 transfection reagent (Invitrogen, Carlsbad, CA, USA). After 24 h, the transfected cells were seeded onto 384-well microtiter plates (3000 cells per well) in HBSS supplemented with 5 mM HEPES, 0.1% (w/v) bovine serum albumin (BSA) and 0.5 mM 3-isobutyl-1- methylxanthine, and stimulated with increasing concentrations of GLP-2 for 30 min at RT. Eu and Ulight were diluted by cAMP detection buffer and added to the plates separately to terminate the reaction. Plates were incubated at RT for 60 min before measuring the fluorescence intensity at 620 nm and […] by an EnVision multilabel plate reader (PerkinElmer, Boston, USA).

[1] = target: GLP-2R W249^ECL1A (human) (UniProt O95838); test: radioligand binding; competition on transiently transfected COS-7 cells: unlabeled teduglutide 0.1 nM to 1 μM against 10–15 pM [125I]GLP-2(1–33, M10Y); 4 h, 4 °C; 50 mM HEPES pH 7.4, 1 mM CaCl2, 5 mM MgCl2, 0.5% BSA; three-parameter logistic fit
[2] = target: GLP-2R N247^ECL1A (human) (UniProt O95838); test: as above
[3] = target: GLP-2R Y252^ECL1A (human) (UniProt O95838); test: as above
[4] = target: GLP-2R W340^5.36A (human) (UniProt O95838); test: as above
[5] = target: GLP-2R K414^7.35 A (human) (UniProt O95838); test: as above
[6] = target: GLP-2R D244^ECL1A (human) (UniProt O95838); test: as above
GLP-2R ECL1 (GLP-1R) = GLP-2R ECL1 (GLP-1R) (UniProt O95838); test: as above
[7] = target: GLP-2R N334^ECL2 A (human) (UniProt O95838); test: as above

Row | Compound | inactivation by dipeptidyl peptidase 4 in vivo (in words) (dipeptidyl peptidase 4) | Emax (GLP-2R K231^2.67A) [%] | % Binding of WT [1] [%] | % Binding of WT [2] [%] | % Binding of WT [3] [%] | % Binding of WT [4] [%] | % Binding of WT [5] [%] | % Binding of WT [6] [%] | % Binding of WT (GLP-2R ECL1 (GLP-1R)) [%] | % Binding of WT [7] [%]
1 | CC[C@H](C)[C@H](NC(=O)[C@H](Cc1ccccc1)NC(=O)[C@H](CC(=O)O)NC(=O)[C@H](CCCNC(=N)N)NC(=O)[C@H](C)NC(=O)[C@H](C)NC(=O)[C@H](CC(C)C)NC(=O)[C@H](CC(N)=O)NC(=O)[C@H](CC(=O)O)NC(=O)[C@H](CC(C)C)NC(=O)[C@@H](NC(=O)[C@@H](NC(=O)[C@H](CC(N)=O)NC(=O)[C@H](CCSC)NC(=O)[C@H](CCC(=O)O)NC(=O)[C@H](CC(=O)O)NC(=O)[C@H](CO)NC(=O)[C@H](Cc1ccccc1)NC(=O)[C@H](CO)NC(=O)CNC(=O)[C@H](CC(=O)O)NC(=O)[C@H](C)NC(=O)[C@@H](N)Cc1c[nH]cn1)[C@@H](C)O)[C@@H](C)CC)C(=O)N[C@@H](CC(N)=O)C(=O)N[C@@H](Cc1c[nH]c2ccccc12)C(=O)N[C@@H](CC(C)C)C(=O)N[C@H](C(=O)N[C@@H](CCC(N)=O)C(=O)N[C@H](C(=O)N[C@@H](CCCCN)C(=O)N[C@H](C(=O)N[C@H](C(=O)N[C@@H](CC(=O)O)C(=O)O)[C@@H](C)O)[C@@H](C)CC)[C@@H](C)O)[C@@H](C)CC [Human GLP-2 (1–33)] | rapidly inactivated by dipeptidyl peptidase 4 in vivo | 105 ± 3 | – | – | – | – | – | – | – | –
2 | [^125I]GLP-2(1–33, M10Y) (peptide) | – | – | 2.9 | 135 | 6.3 | 8.6 | 13.9 | 77.5 | 1.2 | 2

Source: paper PMC7785020, “A unique hormonal recognition feature of the human glucagon-like peptide-2 receptor” (Cell Research, 2020)
